Assay [1] concerns the target hBIMEL (141–166) BH3 peptide (human). The assay can be described thus: native MS.
Assay [2] shares this target. The experiment in a line: HDX-MS.

B1: Bcl-2 chimera (1–34 Bcl-2, 35–50 Bcl-XL, 93–207 Bcl-2) with a C-terminal 6His tag (domain or fragment)
chain: MAHAGRTGYDNREIVMKYIHYKLSQRGYEWDAGDDVEENRTEAPEGTESEPVVHLTLRQAGDDFSRRYRRDFAEMSSQLHLTPFTARGRFATVVEELFRDGVNWGRIVAFFEFGGVMCVESVNREMSPLVDNIALWMTEYLNRHLHTWIQDNGGWDAFVELYGPSMR
For B1, the binding result in assay [1] was “binds”.

B2: Mcl-1 (172–327), untagged after thrombin cleavage of GST (domain or fragment, human (from the printed UniProt entry))
chain: GSGSDELYRQSLEIISRYLREQATGAKDTKPMGRSGATSRKALETLRRVGDGVQRNHETAFQGMLRKLDIKNEDDVKSLSRVMIHVFSDGVTNWGRIVTLISFGAFVAKHLKTINQESCIEPLAESITDVLVRTKRDWLVKQRGWDGFVEFFHVEDLEGG
B2: the binding result in assay [2] is given as “binds”.

The values above are taken from paper PMC10249625 (Biochemistry, 2023).
